Reference: patent US20250320281A1

Experiments:
Test in all cases: cell-based or functional assay
[1] = target: HIV-1 94UG103 Env (pseudovirus, clade A) (HIV-1)
[2] = target: HIV-1 93IN905 Env (pseudovirus, clade C) (HIV-1)
[3] = target: HIV-1 Env of isolate MGRM-D-018 (clade D), on pseudovirus (HIV-1)
[4] = target: HIV-1 Env of isolate APV_17 (subtype B pseudovirus) (HIV-1)
[5] = target: HIV-1 MGRM-D-001 Env (pseudovirus) (HIV-1)
[6] = target: HIV-1 Env of isolate VLGCB3 (subtype B pseudovirus) (HIV-1)
[7] = target: HIV-1 APV17 Env (pseudovirus, clade B) (HIV-1)
[8] = target: HIV-1 Env of isolate 92TH021 (pseudovirus) (HIV-1)
[9] = target: HIV-1 Env of isolate MGRM-F1-008 (pseudovirus) (HIV-1)
[10] = target: HIV-1 Env of pseudovirus isolate MGRM-G-028 (HIV-1)
[11] = target: HIV-1 Env of isolate MGRM-F1-014 (HIV-1)
[12] = target: HIV-1 Env of isolate MG RM-D-016 (HIV-1)
[13] = target: HIV-1 Env of isolate MGRM-AG-009 (subtype AG) (HIV-1)
[14] = target: HIV-1 Env of isolate MGRM-AG-003 (subtype AG) (HIV-1)
[15] = target: HIV-1 envelope glycoprotein (Env) of isolate MGRM-C-008 (HIV-1)
[16] = target: HIV-1 Env of isolate MGRM-A-001 (HIV-1)
[17] = target: HIV-1 Env of isolate MG RM-D-008 (HIV-1)
[18] = target: HIV-1 Env of isolate 92WR024 (HIV-1)
[19] = target: HIV-1 Env of isolate MG RM-D-002 (HIV-1)
[20] = target: HIV-1 Env of isolate MGRM-A-011 (subtype A) (HIV-1)
[21] = target: HIV-1 Env of isolate MGRM-Chronic-B-001 (subtype B) (HIV-1)
[22] = target: HIV-1 Env of isolate MGRM-A-006 (HIV-1)
[23] = target: HIV-1 envelope glycoprotein (Env) of isolate MGRM-C-014 (HIV-1)
[24] = target: HIV-1 Env of isolate MG RM-D-020 (HIV-1)
[25] = target: HIV-1 Env of isolate MGRM-G-028 (HIV-1)
[26] = target: aMLV envelope (negative control pseudovirus)
[27] = target: HIV-1 92UG024 envelope glycoprotein (Env) on pseudovirus (HIV-1)

4993_K13 (PGT-141) (antibody), sequence (VH): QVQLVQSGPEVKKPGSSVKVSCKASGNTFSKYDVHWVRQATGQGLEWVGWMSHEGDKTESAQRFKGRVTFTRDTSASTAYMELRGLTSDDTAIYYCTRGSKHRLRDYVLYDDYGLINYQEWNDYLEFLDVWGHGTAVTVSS
4993_K13 (PGT-141) (antibody), sequence (VL): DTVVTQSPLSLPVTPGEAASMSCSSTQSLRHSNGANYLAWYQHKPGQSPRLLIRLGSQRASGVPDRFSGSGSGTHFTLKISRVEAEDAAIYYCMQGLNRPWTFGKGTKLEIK
5345_I01 (PGT-137) (antibody), sequence (VH): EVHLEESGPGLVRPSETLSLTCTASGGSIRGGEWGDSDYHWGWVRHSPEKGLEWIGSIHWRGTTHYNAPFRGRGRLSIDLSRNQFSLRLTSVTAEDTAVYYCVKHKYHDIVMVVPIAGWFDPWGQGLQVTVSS
5345_I01 (PGT-137) (antibody), sequence (VL): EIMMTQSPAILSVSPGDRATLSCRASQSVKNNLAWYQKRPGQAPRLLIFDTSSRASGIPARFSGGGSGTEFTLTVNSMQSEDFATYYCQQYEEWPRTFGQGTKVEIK

Substance	IC50 neutralization [1] [µg/mL]	IC50 neutralization [2] [µg/mL]	IC50, pseudovirus neutralization [3] [µg/mL]	IC50 (µg/mL), pseudovirus neutralization [4] [µg/mL]	neutralization IC50 (pseudovirus) [5] [µg/mL]	IC50 (µg/mL), pseudovirus neutralization [6] [µg/mL]	IC50 neutralization [7] [µg/mL]	Polyclonal Transfectant Neutralization Index [8]	Primary Neutralization Index (B cell culture supernatant) [8]	IC50, pseudovirus neutralization [9] [µg/mL]	IC50 (µg/mL), pseudovirus neutralization [10] [µg/mL]	IC50 (µg/mL), pseudovirus neutralization [11] [µg/mL]	IC50 (µg/mL), pseudovirus neutralization [12] [µg/mL]	IC50 (µg/mL), pseudovirus neutralization [13] [µg/mL]	IC50 (µg/mL), pseudovirus neutralization [14] [µg/mL]	IC50 (µg/mL), pseudovirus neutralization [15] [µg/mL]	IC50 [16] [µg/mL]	IC50 (µg/mL), pseudovirus neutralization [17] [µg/mL]	IC50 [18] [µg/mL]	IC50 (µg/mL), pseudovirus neutralization [19] [µg/mL]	other results
5123_A06 (PGT-125) (antibody)	0.0124	0.0137	0.0382	8.06	2.31	0.015	7.31	50.6	133	0.361	0.012	> 50									
5147_N06 (PGT-130) (antibody)	0.635	0.0182	0.0378		> 10		> 10	4.2	538		0.074		> 50	9.46	0.041	7.28	> 50	> 50	> 50	0.869	Neutralization by PGT-130, IC50 [5]: > 10 µg/mL; Neutralization by PGT-130, IC80 [5]: > 10 µg/mL; Neutralization by PGT-130, IC90 [5]: > 10 µg/mL; Neutralization by PGT-130, IC95 [5]: > 10 µg/mL; IC50 (µg/mL), pseudovirus neutralization [20]: > 50 µg/mL; IC50 neutralization [21]: > 50 µg/mL; IC50 [22]: > 50 µg/mL; IC50 (µg/mL), pseudovirus neutralization [23]: > 50 µg/mL; IC50 (µg/mL), pseudovirus neutralization [24]: 24.7 µg/mL
5136_H01 (PGT-131) (antibody)									354		0.466		> 50	> 50	2.92	> 50	> 50	> 50	> 50	11.2	IC50 (µg/mL), pseudovirus neutralization [20]: > 50 µg/mL; IC50 neutralization [21]: > 50 µg/mL; IC50 [22]: > 50 µg/mL; IC50 (µg/mL), pseudovirus neutralization [23]: > 50 µg/mL; IC50 (µg/mL), pseudovirus neutralization [24]: > 50 µg/mL
4993_K13 (PGT-141) (antibody)																					IC50 (µg/mL), pseudovirus neutralization [25]: 24.9 µg/mL; IC50 (neutralizing activity, pseudovirus) [26]: > 10 µg/mL; IC50 (µg/mL), pseudovirus neutralization [26]: > 50 µg/mL; IC50 (neutralizing activity, pseudovirus) [5]: > 10 µg/mL
4838_L06 (PGT-121) (antibody)				0.066		0.005				> 50											
5141_B17 (PGT-126) (antibody)	0.0091	0.0194	0.0093	0.353	0.0639	0.007	0.501	2.74	2.3	> 50	0.012	> 50									IC50, pseudovirus neutralization [27]: > 10 µg/mL; IC80 (pseudovirus neutralization) [27]: > 10 µg/mL; IC90 (pseudovirus neutralization) [27]: > 10 µg/mL; IC95 (pseudovirus neutralization) [27]: > 10 µg/mL
5145_B14 (PGT-127) (antibody)				10.4		0.022		0.94	1	> 50	0.032	> 50									
5345_I01 (PGT-137) (antibody)											> 50		> 50	> 50	> 50	> 50	> 50	> 50	> 50	> 50	IC50 (µg/mL), pseudovirus neutralization [20]: > 50 µg/mL; IC50 neutralization [21]: > 50 µg/mL; IC50 [22]: > 50 µg/mL; IC50 (µg/mL), pseudovirus neutralization [23]: > 50 µg/mL; IC50 (µg/mL), pseudovirus neutralization [24]: > 50 µg/mL
